Values quoted from earlier work in publication PMC3758474.

How the values were obtained:
Grb7 SH2 (Homo sapiens) = Grb7 SH2 (Homo sapiens) (UniProt Q14451)
[1] = molecular target: erbB2 pY1139 peptide pY1139 peptide (Homo sapiens) (UniProt P04626); assay: ITC

Kd (Grb7 SH2 (Homo sapiens)): 11 µM | Kd [1]: 2.28 µM
Substance: Grb7 SH2 (from UniProt Q14451)
